The record followed here is paper PMC5560549.

The target of test [1] is human FcRn (Sino Biological), biotinylated (UniProt P55899). The test is described as follows: SPR (Biacore 3000). The conditions noted are these: pH 6.0, not stated for this buffer (the HBS-EP+ used in the PCSK9 experiments contained 150 mM NaCl), HBS-EP buffer pH 6.0. Its composition is not given. The HBS-EP+ of the PCSK9 SPR section was 10 mM HEPES, 3. (SPR reads the build-up and loss of mass on a sensor chip optically.)

For test [2] the target is unchanged. Briefly: ELISA. The settings on record: 37°C (incubations), PBS (concentration not stated), PBST (PBS + 0.05% (v/v) Tween 20) adjusted to pH 6.0 or pH 7.4 for the washes. The pH of the antibody dilution buffer is.
Test [3] has as its target human FcRn (neonatal Fc receptor), biotinylated (human) (UniProt P55899). The test is described as follows: SPR; Biacore 3000; biotinylated FcRn captured on streptavidin coupled to a CM5 chip; antibody 0-10 nM in HBS-EP pH 6.0 injected at 50 ul/min, 3 min association, 3 min dissociation; regeneration with HBS-EP pH 8.0; 1:1 Langmuir model.

In test [1], “F0016A (alirocumab sequence, wild-type Fc)” registered a ka of 1.27e+06 M⁻¹ s⁻¹ and a kd of 0.00617 s⁻¹. Moreover, the EC50 in test [2] (pH 6.0) is 30.4 µg/mL. The EC50 in test [2] (pH 7.4) came out at 45.1 µg/mL.

In the case of “F0016A, a human IgG1 anti-PCSK9 mAb (alirocumab) (antibody)”, in test [3], the dissociation constant Kd amounted to 4.88 nM, the koff is 0.00617 s⁻¹ and the kon was determined as 1.27e+06 M⁻¹ s⁻¹.

In test [1], “F0016B (alirocumab Fc T251Q/M429L) T251Q;M429L” registered a ka of 1.43e+06 M⁻¹ s⁻¹ and a kd of 0.00302 s⁻¹. For the same substance, the EC50 in test [2] (pH 6.0) was 3.47 µg/mL. Further, the EC50 in test [2] (pH 7.4) stood at 12.2 µg/mL.

In test [3], “F0016B, Fc variant T251Q/M429L of F0016A (antibody)” showed a Kd of 2.11 nM, a koff of 0.00302 s⁻¹ and a kon of 1.43e+06 M⁻¹ s⁻¹.

Substance “F0016C (alirocumab Fc M429L/N435S) M429L;N435S” gave a ka in test [1] of 1.36e+06 M⁻¹ s⁻¹. The substance further displayed a kd in test [1] of 0.0024 s⁻¹. Also, the EC50 in test [2] (pH 6.0) was 1.56 µg/mL; in test [2] (pH 7.4), 16.5 µg/mL.

Consider “F0016C, Fc variant M429L/N435S of F0016A (antibody)”, for which, in test [3], the Kd is 1.76 nM, the koff amounted to 0.0024 s⁻¹ and the kon was determined as 1.36e+06 M⁻¹ s⁻¹.

On to “F0016D (alirocumab Fc M253Y/S255T/T257E) M253Y;S255T;T257E”, for which, in test [1], the ka was found to be 1.05e+06 M⁻¹ s⁻¹ and the kd amounted to 0.00201 s⁻¹. Moreover, the EC50 in test [2] (pH 6.0) was found to be 1.75 µg/mL. In test [2] (pH 7.4), the EC50 came out at 8.87 µg/mL.

As to “F0016D, Fc variant M253Y/S255T/T257E of F0016A (antibody)”, in test [3], the equilibrium dissociation constant (Kd) is 1.91 nM, the dissociation rate constant (koff) was found to be 0.00201 s⁻¹ and the on-rate constant (kon) is 1.05e+06 M⁻¹ s⁻¹.

A word on the EC50: it is the concentration that produces a half-maximal response. Broadly, the Kd is the equilibrium constant for the complex coming apart. The low end stands for tighter binding, the high end for weaker binding. One may read the koff as the rate constant with which the complex falls apart. For orientation: kon means a measure of how fast the partners come together.
